Measurements from paper PMC11667226 (Theranostics, 2025).
Where two headings read alike, the source gives them in different places. Non-standard residues stand in square brackets, D forms with d. Residues, ends and D or L forms follow the SMILES beside them. *: point of attachment. X1 = CC1(C)C(=CC=CC=CC=CC2=[N+](CCCCCC(=O)*)c3ccc4ccccc4c3C2(C)C)N(CCCCS(=O)(=O)[O-])c2ccc3ccccc3c21; Cha = N[C@@H](CC1CCCCC1)C(=O)O

Details: for TEAE Mild (Grade 1): No. events / TEAE Mild (Grade 1): No. patients (%) / TEAE Moderate (Grade 2): No. events / TEAE Moderate (Grade 2): No. patients (%) / TEAE Severe (Grade 3): No. events / TEAE Severe (Grade 3): No. patients (%): CTCAE v5.0
Procedure: ECGs were taken at baseline, 1 hr ± 15 min, and 44 hrs ± 6 h post-injection. Blood samples (including lever and kidney parameters) were sampled at baseline, 12 hrs ± 4 hrs, and 44 hrs ± 6 hrs post-injection. All laboratory analyses were performed by the Department of Biochemistry at Rigshospitalet. AE assessments were graded according to the National Cancer Institute “Common Terminology Criteria for Adverse Events (CTCAE)” version 5.0. There was no data monitoring committee in this trial.

CC(C)C[C@H](NC(=O)[C@H](Cc1ccc(O)cc1)NC(=O)[C@@H](CCCNC(=N)N)NC(=O)[C@@H](CO)NC(=O)[C@H](Cc1ccccc1)NC(=O)[C@H](CC1CCCCC1)NC(=O)[C@H](CC(=O)O)NC(=O)[C@H](CCC(=O)O)NC(=O)[C@H](CCC(=O)O)NC(=O)CCCCC[N+]1=C(C=CC=CC=CC=C2N(CCCCS(=O)(=O)[O-])c3ccc4ccccc4c3C2(C)C)C(C)(C)c2c1ccc1ccccc21)C(=O)N[C@@H](Cc1c[nH]c2ccccc12)C(=O)N[C@@H](CO)C(=O)O [FG001, ICG-Glu-Glu-AE105] (X1-EED[Cha]F[dS][dR]YLWS-OH; N-terminus and C-terminus assumed)
1: TEAE AST increased: No. events (FG001 4 mg i.v., N=5) | TEAE Blood bilirubin increased: No. events (FG001 4 mg i.v., N=5) | TEAE Hyponatraemia: No. events (FG001 4 mg i.v., N=5) | TEAE AST increased: No. events (FG001 16 mg i.v., N=8) | TEAE Blood creatinine increased: No. events (FG001 16 mg i.v., N=8) | TEAE Dysgeusia: No. events (FG001 16 mg i.v., N=8) | TEAE Hyperglycaemia: No. events (FG001 16 mg i.v., N=8) | TEAE Hypertension: No. events (FG001 16 mg i.v., N=8) | TEAE Hypotension: No. events (FG001 16 mg i.v., N=8) | TEAE Hypothermia: No. events (FG001 16 mg i.v., N=8) | TEAE Pneumonia: No. events (FG001 16 mg i.v., N=8) | TEAE SOC General disorders and administration site conditions: No. events (FG001 16 mg i.v., N=8) | TEAE SOC Infections and infestations: No. events (FG001 16 mg i.v., N=8) | TEAE SOC Nervous system disorders: No. events (FG001 16 mg i.v., N=8) | TEAE ALT increased: No. events (FG001 36 mg i.v., N=4) | TEAE AST increased: No. events (FG001 36 mg i.v., N=4) | TEAE Blood ALP increased: No. events (FG001 36 mg i.v., N=4)
6: TEAE SOC Metabolism and nutrition disorders: No. events (FG001 16 mg i.v., N=8)
1 (25.0%): TEAE ALT increased: No. subjects (%) (FG001 36 mg i.v., N=4) | TEAE AST increased: No. subjects (%) (FG001 36 mg i.v., N=4) | TEAE Blood ALP increased: No. subjects (%) (FG001 36 mg i.v., N=4)
7: TEAE: No. events (FG001 4 mg i.v., n = 5)
1 (12.5%): TEAE AST increased: No. subjects (%) (FG001 16 mg i.v., N=8) | TEAE Blood creatinine increased: No. subjects (%) (FG001 16 mg i.v., N=8) | TEAE Dysgeusia: No. subjects (%) (FG001 16 mg i.v., N=8) | TEAE Hyperglycaemia: No. subjects (%) (FG001 16 mg i.v., N=8) | TEAE Hypertension: No. subjects (%) (FG001 16 mg i.v., N=8) | TEAE Hypotension: No. subjects (%) (FG001 16 mg i.v., N=8) | TEAE Hypothermia: No. subjects (%) (FG001 16 mg i.v., N=8) | TEAE Pneumonia: No. subjects (%) (FG001 16 mg i.v., N=8) | TEAE SOC General disorders and administration site conditions: No. subjects (%) (FG001 16 mg i.v., N=8)
2 (40.0%): TEAE SOC Investigations: No. subjects (%) (FG001 4 mg i.v., N=5) | TEAE Mild (Grade 1): No. patients (%) (FG001 4 mg i.v., n = 5) | TEAE Moderate (Grade 2): No. patients (%) (FG001 4 mg i.v., n = 5)
3 (37.5%): TEAE SOC Investigations: No. subjects (%) (FG001 16 mg i.v., N=8)
5 (62.5%): TEAE Hypalbuminaemia: No. subjects (%) (FG001 16 mg i.v., N=8) | TEAE SOC Metabolism and nutrition disorders: No. subjects (%) (FG001 16 mg i.v., N=8)
5: TEAE SOC Metabolism and nutrition disorders: No. events (FG001 4 mg i.v., N=5) | TEAE Mild (Grade 1): No. events (FG001 4 mg i.v., n = 5) | TEAE Hypalbuminaemia: No. events (FG001 16 mg i.v., N=8)
4 (80%): TEAE: No. patients (%) (FG001 4 mg i.v., n = 5)
No ECG abnormalities: ECG abnormalities (ECGs at baseline, 1 hr and 44 hrs post-injection)
0 (0.0%): TEAE ALT increased: No. subjects (%) (FG001 4 mg i.v., N=5) | TEAE Blood ALP increased: No. subjects (%) (FG001 4 mg i.v., N=5) | TEAE Blood creatinine increased: No. subjects (%) (FG001 4 mg i.v., N=5) | TEAE Dysgeusia: No. subjects (%) (FG001 4 mg i.v., N=5) | TEAE GGT increased: No. subjects (%) (FG001 4 mg i.v., N=5) | TEAE Hyperglycaemia: No. subjects (%) (FG001 4 mg i.v., N=5) | TEAE Hypertension: No. subjects (%) (FG001 4 mg i.v., N=5) | TEAE Hypotension: No. subjects (%) (FG001 4 mg i.v., N=5) | TEAE Hypothermia: No. subjects (%) (FG001 4 mg i.v., N=5) | TEAE Pneumonia: No. subjects (%) (FG001 4 mg i.v., N=5) | TEAE SOC General disorders and administration site conditions: No. subjects (%) (FG001 4 mg i.v., N=5) | TEAE SOC Infections and infestations: No. subjects (%) (FG001 4 mg i.v., N=5) | TEAE SOC Nervous system disorders: No. subjects (%) (FG001 4 mg i.v., N=5) | TEAE SOC Vascular disorders: No. subjects (%) (FG001 4 mg i.v., N=5) | TEAE Severe (Grade 3): No. patients (%) (FG001 4 mg i.v., n = 5) | TEAE ALT increased: No. subjects (%) (FG001 16 mg i.v., N=8) | TEAE Blood ALP increased: No. subjects (%) (FG001 16 mg i.v., N=8) | TEAE GGT increased: No. subjects (%) (FG001 16 mg i.v., N=8) | TEAE Hyponatraemia: No. subjects (%) (FG001 16 mg i.v., N=8) | TEAE Severe (Grade 3): No. patients (%) (FG001 16 mg i.v., n = 8)
8 (100%): TEAE: No. patients (%) (FG001 16 mg i.v., n = 8)
4 (80.0%): TEAE Hypalbuminaemia: No. subjects (%) (FG001 4 mg i.v., N=5) | TEAE SOC Metabolism and nutrition disorders: No. subjects (%) (FG001 4 mg i.v., N=5)
2: TEAE SOC Investigations: No. events (FG001 4 mg i.v., N=5) | TEAE Moderate (Grade 2): No. events (FG001 4 mg i.v., n = 5) | TEAE Blood bilirubin increased: No. events (FG001 16 mg i.v., N=8) | TEAE SOC Vascular disorders: No. events (FG001 16 mg i.v., N=8)
11: TEAE Mild (Grade 1): No. events (FG001 16 mg i.v., n = 8)
0: TEAE ALT increased: No. events (FG001 4 mg i.v., N=5) | TEAE Blood ALP increased: No. events (FG001 4 mg i.v., N=5) | TEAE Blood creatinine increased: No. events (FG001 4 mg i.v., N=5) | TEAE Dysgeusia: No. events (FG001 4 mg i.v., N=5) | TEAE GGT increased: No. events (FG001 4 mg i.v., N=5) | TEAE Hyperglycaemia: No. events (FG001 4 mg i.v., N=5) | TEAE Hypertension: No. events (FG001 4 mg i.v., N=5) | TEAE Hypotension: No. events (FG001 4 mg i.v., N=5) | TEAE Hypothermia: No. events (FG001 4 mg i.v., N=5) | TEAE Pneumonia: No. events (FG001 4 mg i.v., N=5) | TEAE SOC General disorders and administration site conditions: No. events (FG001 4 mg i.v., N=5) | TEAE SOC Infections and infestations: No. events (FG001 4 mg i.v., N=5) | TEAE SOC Nervous system disorders: No. events (FG001 4 mg i.v., N=5) | TEAE SOC Vascular disorders: No. events (FG001 4 mg i.v., N=5) | FG001 related TEAEs: No. events (FG001 4 mg i.v., n = 5) | SAEs: No. events (FG001 4 mg i.v., n = 5) | TEAE Severe (Grade 3): No. events (FG001 4 mg i.v., n = 5) | TEAE ALT increased: No. events (FG001 16 mg i.v., N=8) | TEAE Blood ALP increased: No. events (FG001 16 mg i.v., N=8) | TEAE GGT increased: No. events (FG001 16 mg i.v., N=8) | TEAE Hyponatraemia: No. events (FG001 16 mg i.v., N=8) | FG001 related TEAEs: No. events (FG001 16 mg i.v., n = 8) | SAEs: No. events (FG001 16 mg i.v., n = 8) | TEAE Severe (Grade 3): No. events (FG001 16 mg i.v., n = 8)
2 (25.0%): TEAE Blood bilirubin increased: No. subjects (%) (FG001 16 mg i.v., N=8) | TEAE SOC Vascular disorders: No. subjects (%) (FG001 16 mg i.v., N=8)
1 (20.0%): TEAE AST increased: No. subjects (%) (FG001 4 mg i.v., N=5) | TEAE Blood bilirubin increased: No. subjects (%) (FG001 4 mg i.v., N=5) | TEAE Hyponatraemia: No. subjects (%) (FG001 4 mg i.v., N=5)
4 (50.0%): TEAE Mild (Grade 1): No. patients (%) (FG001 16 mg i.v., n = 8) | TEAE Moderate (Grade 2): No. patients (%) (FG001 16 mg i.v., n = 8)
4: TEAE Hypalbuminaemia: No. events (FG001 4 mg i.v., N=5) | TEAE SOC Investigations: No. events (FG001 16 mg i.v., N=8) | TEAE Moderate (Grade 2): No. events (FG001 16 mg i.v., n = 8)
15: TEAE: No. events (FG001 16 mg i.v., n = 8)
0 (0%): FG001 related TEAEs: No. patients (%) (FG001 4 mg i.v., n = 5) | SAEs: No. patients (%) (FG001 4 mg i.v., n = 5) | FG001 related TEAEs: No. patients (%) (FG001 16 mg i.v., n = 8) | SAEs: No. patients (%) (FG001 16 mg i.v., n = 8)
